Patent US20210403591A1 (OSSIANIX, published 2021)
Residue numbers refer to the chain shown, from its start. Values belong to the binder of their own block, whether it stands above or below them.

How the values were obtained:
Experiment in all cases: FACS, transfected Expi293 cells
[1] = molecular target: T1, mTfR-1 L383A on Expi293 cells (mouse, UniProt Q62351 1-763)
T1 construct: whole, on cells
Procedure: (§1) Transfected Expi293 cells were harvested and 2×10⁵ cells were transferred into V-bottom 96-well plate for staining. The cells were blocked in PBS containing 1% BSA (FACS buffer) for 10 min on ice, centrifuged to remove the buffer and 1 μl of 8D3-hFc formatted antibody, Clone C-hFc or Clone C variants 18 and 13 (Table 1), all at 1 mg/ml, was added to the wells. The cells were co-stained with mouse Tf-Alexa647 (Jackson ImmunoResearch). After 30 minutes on ice, the cells were washed and incubated with anti-hFc-PE (eBioscience) for 20 minutes on ice, washed again and resuspended in […] of FACS buffer containing 5 μl of propidium iodide (PI) to exclude dead cells from the analysis. The percentage of double-positive cells that stained with mTf and the tested antibody was determined on a CytoFlex cytometer (Beckman Coulter). The percentage of cells in the double positive quadrant (Q2) for WT mTfR-1 was used for normalization.

[2] = molecular target: T2, mTfR-1 T228A on Expi293 cells (mouse, UniProt Q62351 1-763)
T2 construct: whole, on cells
Procedure: as §1

[3] = molecular target: T3, mTfR-1 G330A on Expi293 cells (mouse, UniProt Q62351 1-763)
T3 construct: whole, on cells
Procedure: as §1

[4] = molecular target: T4, mTfR-1 S196A on Expi293 cells (mouse, UniProt Q62351 1-763)
T4 construct: whole, on cells
Procedure: as §1

[5] = molecular target: T5, mTfR-1 S328A on Expi293 cells (mouse, UniProt Q62351 1-763)
T5 construct: whole, on cells
Procedure: as §1

[6] = molecular target: T6, mTfR-1 N277A on Expi293 cells (mouse, UniProt Q62351 1-763)
T6 construct: whole, on cells
Procedure: as §1

[7] = molecular target: T7, mTfR-1 S197A on Expi293 cells (mouse, UniProt Q62351 1-763)
T7 construct: whole, on cells
Procedure: as §1

[8] = molecular target: T8, mTfR-1 K384A on Expi293 cells (mouse, UniProt Q62351 1-763)
T8 construct: whole, on cells
Procedure: as §1

[9] = molecular target: T9, mTfR-1 Q193A on Expi293 cells (mouse, UniProt Q62351 1-763)
T9 construct: whole, on cells
Procedure: as §1

[10] = molecular target: T10, mTfR-1 S326A on Expi293 cells (mouse, UniProt Q62351 1-763)
T10 construct: whole, on cells
Procedure: as §1

[11] = molecular target: T11, mTfR-1 S225A on Expi293 cells (mouse, UniProt Q62351 1-763)
T11 construct: whole, on cells
Procedure: as §1

[12] = molecular target: T12, mTfR-1 N253A on Expi293 cells (mouse, UniProt Q62351 1-763)
T12 construct: whole, on cells
Procedure: as §1

[13] = molecular target: T13, mTfR-1 V382A on Expi293 cells (mouse, UniProt Q62351 1-763)
T13 construct: whole, on cells
Procedure: as §1

[14] = molecular target: T14, mTfR-1 I378A on Expi293 cells (mouse, UniProt Q62351 1-763)
T14 construct: whole, on cells
Procedure: as §1

[15] = molecular target: T15, mTfR-1 I279A on Expi293 cells (mouse, UniProt Q62351 1-763)
T15 construct: whole, on cells
Procedure: as §1

[16] = molecular target: T16, mTfR-1 Q274A on Expi293 cells (mouse, UniProt Q62351 1-763)
T16 construct: whole, on cells
Procedure: as §1

[17] = molecular target: T17, mTfR-1 P325A on Expi293 cells (mouse, UniProt Q62351 1-763)
T17 construct: whole, on cells
Procedure: as §1

[18] = molecular target: T18, mTfR-1 P227A on Expi293 cells (mouse, UniProt Q62351 1-763)
T18 construct: whole, on cells
Procedure: as §1

[19] = molecular target: T19, mTfR-1 S255A on Expi293 cells (mouse, UniProt Q62351 1-763)
T19 construct: whole, on cells
Procedure: as §1

[20] = molecular target: T20, mTfR-1 S329A on Expi293 cells (mouse, UniProt Q62351 1-763)
T20 construct: whole, on cells
Procedure: as §1

[21] = molecular target: T21, mTfR-1 I198A on Expi293 cells (mouse, UniProt Q62351 1-763)
T21 construct: whole, on cells
Procedure: as §1

[22] = molecular target: T22, mTfR-1 G254A on Expi293 cells (mouse, UniProt Q62351 1-763)
T22 construct: whole, on cells
Procedure: as §1

[23] = molecular target: T23, mTfR-1 E229A on Expi293 cells (mouse, UniProt Q62351 1-763)
T23 construct: whole, on cells
Procedure: as §1

[24] = molecular target: T24, WT mTfR-1 expressed on Expi293 cells (mouse, UniProt Q62351 1-763)
T24 construct: whole, on cells
Procedure: as §1

[25] = molecular target: T25, mTfR-1 K191A on Expi293 cells (mouse, UniProt Q62351 1-763)
T25 construct: whole, on cells
Procedure: as §1

[26] = molecular target: T26, mTfR-1 N333A on Expi293 cells (mouse, UniProt Q62351 1-763)
T26 construct: whole, on cells
Procedure: as §1

[27] = molecular target: T27, mTfR-1 Q327A on Expi293 cells (mouse, UniProt Q62351 1-763)
T27 construct: whole, on cells
Procedure: as §1

[28] = molecular target: T28, mTfR-1 S231A on Expi293 cells (mouse, UniProt Q62351 1-763)
T28 construct: whole, on cells
Procedure: as §1

[29] = molecular target: T29, mTfR-1 K226A on Expi293 cells (mouse, UniProt Q62351 1-763)
T29 construct: whole, on cells
Procedure: as §1

T23 sequence (Q62351 whole entry E229A): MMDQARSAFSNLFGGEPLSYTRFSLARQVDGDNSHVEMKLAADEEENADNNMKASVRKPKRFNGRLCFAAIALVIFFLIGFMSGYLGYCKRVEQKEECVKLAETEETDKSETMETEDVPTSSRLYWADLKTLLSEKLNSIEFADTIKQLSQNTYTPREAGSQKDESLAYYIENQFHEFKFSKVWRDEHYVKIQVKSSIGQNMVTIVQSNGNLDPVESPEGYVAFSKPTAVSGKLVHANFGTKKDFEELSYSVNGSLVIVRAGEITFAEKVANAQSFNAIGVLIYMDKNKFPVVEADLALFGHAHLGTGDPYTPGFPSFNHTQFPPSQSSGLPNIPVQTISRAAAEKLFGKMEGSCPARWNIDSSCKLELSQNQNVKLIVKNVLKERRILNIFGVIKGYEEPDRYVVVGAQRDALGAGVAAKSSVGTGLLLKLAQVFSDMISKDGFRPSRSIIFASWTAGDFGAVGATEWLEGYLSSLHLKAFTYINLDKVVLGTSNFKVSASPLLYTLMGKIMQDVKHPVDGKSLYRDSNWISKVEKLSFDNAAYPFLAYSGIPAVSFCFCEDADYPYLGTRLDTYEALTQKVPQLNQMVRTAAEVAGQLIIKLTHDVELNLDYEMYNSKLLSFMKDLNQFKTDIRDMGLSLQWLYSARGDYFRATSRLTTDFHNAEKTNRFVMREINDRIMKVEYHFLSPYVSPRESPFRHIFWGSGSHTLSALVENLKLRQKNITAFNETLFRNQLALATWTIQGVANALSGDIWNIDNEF
T7 sequence (Q62351 whole entry S197A): as the sequence (Q62351 whole entry E229A) above, with S197A, A229E counted along it
T24 sequence (Q62351 whole entry): as the sequence (Q62351 whole entry E229A) above, with A229E counted along it
T14 sequence (Q62351 whole entry I378A): as the sequence (Q62351 whole entry E229A) above, with A229E, I378A counted along it
T17 sequence (Q62351 whole entry P325A): as the sequence (Q62351 whole entry E229A) above, with A229E, P325A counted along it
T19 sequence (Q62351 whole entry S255A): as the sequence (Q62351 whole entry E229A) above, with A229E, S255A counted along it
T21 sequence (Q62351 whole entry I198A): as the sequence (Q62351 whole entry E229A) above, with I198A, A229E counted along it
T15 sequence (Q62351 whole entry I279A): as the sequence (Q62351 whole entry E229A) above, with A229E, I279A counted along it
T6 sequence (Q62351 whole entry N277A): as the sequence (Q62351 whole entry E229A) above, with A229E, N277A counted along it
T12 sequence (Q62351 whole entry N253A): as the sequence (Q62351 whole entry E229A) above, with A229E, N253A counted along it
T5 sequence (Q62351 whole entry S328A): as the sequence (Q62351 whole entry E229A) above, with A229E, S328A counted along it
T18 sequence (Q62351 whole entry P227A): as the sequence (Q62351 whole entry E229A) above, with P227A, A229E counted along it
T13 sequence (Q62351 whole entry V382A): as the sequence (Q62351 whole entry E229A) above, with A229E, V382A counted along it
T27 sequence (Q62351 whole entry Q327A): as the sequence (Q62351 whole entry E229A) above, with A229E, Q327A counted along it
T26 sequence (Q62351 whole entry N333A): as the sequence (Q62351 whole entry E229A) above, with A229E, N333A counted along it
T22 sequence (Q62351 whole entry G254A): as the sequence (Q62351 whole entry E229A) above, with A229E, G254A counted along it
T20 sequence (Q62351 whole entry S329A): as the sequence (Q62351 whole entry E229A) above, with A229E, S329A counted along it
T10 sequence (Q62351 whole entry S326A): as the sequence (Q62351 whole entry E229A) above, with A229E, S326A counted along it
T28 sequence (Q62351 whole entry S231A): as the sequence (Q62351 whole entry E229A) above, with A229E, S231A counted along it
T29 sequence (Q62351 whole entry K226A): as the sequence (Q62351 whole entry E229A) above, with K226A, A229E counted along it
T9 sequence (Q62351 whole entry Q193A): as the sequence (Q62351 whole entry E229A) above, with Q193A, A229E counted along it
T2 sequence (Q62351 whole entry T228A): as the sequence (Q62351 whole entry E229A) above, with T228A, A229E counted along it
T1 sequence (Q62351 whole entry L383A): as the sequence (Q62351 whole entry E229A) above, with A229E, L383A counted along it
T16 sequence (Q62351 whole entry Q274A): as the sequence (Q62351 whole entry E229A) above, with A229E, Q274A counted along it
T8 sequence (Q62351 whole entry K384A): as the sequence (Q62351 whole entry E229A) above, with A229E, K384A counted along it
T25 sequence (Q62351 whole entry K191A): as the sequence (Q62351 whole entry E229A) above, with K191A, A229E counted along it
T4 sequence (Q62351 whole entry S196A): as the sequence (Q62351 whole entry E229A) above, with S196A, A229E counted along it
T3 sequence (Q62351 whole entry G330A): as the sequence (Q62351 whole entry E229A) above, with A229E, G330A counted along it
T11 sequence (Q62351 whole entry S225A): as the sequence (Q62351 whole entry E229A) above, with S225A, A229E counted along it

B1: Clone C VNAR-hFc fusion (Fc fusion, not shown: a dimerising Fc or GST)
chain: ARVDQTPQTITKETGESLTINCVLRDSNCALSSTYWYRKKSGSTNEENISKGGRYVETVNSGSKSFSLRINDLTVEDSGTYRCNVVQYPSYNNYFWCDVYGDGTAVTVN
notes: bivalent VNAR-Fc; also called Clone C-hFc
% double-positive cells vs WT [1]: 328%
% double-positive cells vs WT [2]: 68%
% double-positive cells vs WT [3]: 307%
% double-positive cells vs WT [4]: 123%
% double-positive cells vs WT [5]: 50%
% double-positive cells vs WT [6]: 137%
% double-positive cells vs WT [7]: 111%
% double-positive cells vs WT [8]: 187%
% double-positive cells vs WT [9]: 152%
% double-positive cells vs WT [10]: 136%
% double-positive cells vs WT [11]: 180%
% double-positive cells vs WT [12]: 26%
% double-positive cells vs WT [13]: 357%
% double-positive cells vs WT [14]: 142%
% double-positive cells vs WT [15]: 177%
% double-positive cells vs WT [16]: 182%
% double-positive cells vs WT [17]: 148%
% double-positive cells vs WT [18]: 77%
% double-positive cells vs WT [19]: 14%
% double-positive cells vs WT [20]: 212%
% double-positive cells vs WT [21]: 239%
% double-positive cells vs WT [22]: 35%
% double-positive cells vs WT [23]: 81%
% double-positive cells vs WT [24]: 100%
% double-positive cells vs WT [25]: 51%
% double-positive cells vs WT [26]: 213%
% double-positive cells vs WT [27]: 83%
% double-positive cells vs WT [28]: 283%
% double-positive cells vs WT [29]: 157%

B2: Clone C variant 13 VNAR-hFc (Fc fusion, not shown: a dimerising Fc or GST)
chain: B1 chain with S90Q, Y91Q, N92D
notes: also called Clone C v13; Clone C var; 13
% double-positive cells vs WT [1]: 121%
% double-positive cells vs WT [2]: 65%
% double-positive cells vs WT [3]: 87%
% double-positive cells vs WT [4]: 47%
% double-positive cells vs WT [5]: 22%
% double-positive cells vs WT [6]: 84%
% double-positive cells vs WT [7]: 56%
% double-positive cells vs WT [8]: 85%
% double-positive cells vs WT [10]: 77%
% double-positive cells vs WT [11]: 73%
% double-positive cells vs WT [13]: 111%
% double-positive cells vs WT [14]: 115%
% double-positive cells vs WT [15]: 85%
% double-positive cells vs WT [16]: 84%
% double-positive cells vs WT [17]: 83%
% double-positive cells vs WT [18]: 47%
% double-positive cells vs WT [20]: 73%
% double-positive cells vs WT [21]: 73%
% double-positive cells vs WT [22]: 22%
% double-positive cells vs WT [23]: 43%
% double-positive cells vs WT [24]: 100%
% double-positive cells vs WT [26]: 94%
% double-positive cells vs WT [27]: 85%
% double-positive cells vs WT [28]: 101%
% double-positive cells vs WT [29]: 77%

Further lines, results first:

% double-positive cells vs WT [1]: 354%
% double-positive cells vs WT [2]: 45%
% double-positive cells vs WT [3]: 231%
% double-positive cells vs WT [4]: 104%
% double-positive cells vs WT [5]: 20%
% double-positive cells vs WT [6]: 155%
% double-positive cells vs WT [7]: 66%
% double-positive cells vs WT [8]: 147%
% double-positive cells vs WT [9]: 178%
% double-positive cells vs WT [10]: 129%
% double-positive cells vs WT [11]: 163%
% double-positive cells vs WT [12]: 10%
% double-positive cells vs WT [13]: 241%
% double-positive cells vs WT [14]: 80%
% double-positive cells vs WT [15]: 206%
% double-positive cells vs WT [16]: 229%
% double-positive cells vs WT [17]: 175%
% double-positive cells vs WT [18]: 20%
% double-positive cells vs WT [19]: 23%
% double-positive cells vs WT [20]: 182%
% double-positive cells vs WT [21]: 79%
% double-positive cells vs WT [22]: 32%
% double-positive cells vs WT [23]: 51%
% double-positive cells vs WT [24]: 100%
% double-positive cells vs WT [25]: 25%
% double-positive cells vs WT [26]: 161%
% double-positive cells vs WT [27]: 119%
% double-positive cells vs WT [28]: 173%
% double-positive cells vs WT [29]: 91%
B3: Clone C variant 18 VNAR-hFc (Fc fusion, not shown: a dimerising Fc or GST)
chain: B1 chain with S90Q, N92P
notes: also called Clone C v18; Clone C var; 18

% double-positive cells vs WT [1]: 73%
% double-positive cells vs WT [2]: 89%
% double-positive cells vs WT [3]: 90%
% double-positive cells vs WT [4]: 74%
% double-positive cells vs WT [5]: 141%
% double-positive cells vs WT [6]: 56%
% double-positive cells vs WT [7]: 100%
% double-positive cells vs WT [8]: 35%
% double-positive cells vs WT [9]: 63%
% double-positive cells vs WT [10]: 31%
% double-positive cells vs WT [11]: 64%
% double-positive cells vs WT [12]: 87%
% double-positive cells vs WT [13]: 82%
% double-positive cells vs WT [14]: 92%
% double-positive cells vs WT [15]: 74%
% double-positive cells vs WT [16]: 87%
% double-positive cells vs WT [17]: 119%
% double-positive cells vs WT [18]: 63%
% double-positive cells vs WT [19]: 56%
% double-positive cells vs WT [20]: 18%
% double-positive cells vs WT [21]: 94%
% double-positive cells vs WT [22]: 58%
% double-positive cells vs WT [23]: 68%
% double-positive cells vs WT [24]: 100%
% double-positive cells vs WT [25]: 91%
% double-positive cells vs WT [26]: 90%
% double-positive cells vs WT [27]: 124%
% double-positive cells vs WT [28]: 65%
% double-positive cells vs WT [29]: 111%
B4: 8D3 antibody (anti-mouse TfR-1 control; 8D3-hFc formatted antibody) (antibody, V domains shown)
VH: EVQLVESGGGLVQPGNSLTLSCVASGFTFSNYGMHWIRQAPKKGLEWIAMIYYDSSKMNYADTVKGRFTISRDNSKNTLYLEMNSLRSEDTAMYYCAVPTSHYVVDVWGQGVSVTVSS
VL: DIQMTQSPASLSASLEEIVTITCQASQDIGNWLAWYQQKPGKSPQLLIYGATSLADGVPSRFSGSRSGTQFSLKISRVQVEDIGIYYCLQAYNTPWTFGGGTKLELK
